Source: paper PMC5333794

Legend:
gp120 (bead-conjugated) = assay: Fc Array (multiplexed bead assay, anti-huIgG-PE detection); details: variants incubated with gp120-coated microspheres at equal concentrations; read off a plot
[1] = biological target: tetrameric FcγRIII detection reagent (UniProt P08637); assay: Fc Array (multiplexed bead assay, tetrameric FcγRIII detection); details: variants incubated with gp120-coated microspheres at equal concentrations; read off a plot
Chain of UniProt P08637 (P08637 17-254): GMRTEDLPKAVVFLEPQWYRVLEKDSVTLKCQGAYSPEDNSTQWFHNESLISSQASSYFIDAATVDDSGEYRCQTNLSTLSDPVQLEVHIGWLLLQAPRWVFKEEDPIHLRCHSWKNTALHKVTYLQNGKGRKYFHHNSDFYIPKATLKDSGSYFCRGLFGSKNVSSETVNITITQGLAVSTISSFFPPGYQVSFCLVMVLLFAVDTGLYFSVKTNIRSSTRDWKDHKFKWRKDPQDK

Row | Substance | response (gp120 (bead-conjugated)) [MFI] | response [1] [MFI]
1 | b12 D270E | 14000 | 110
2 | b12 G236A | 14000 | 59
3 | b12 I332E | 13000 | 320
4 | b12 IE/SD | 14000 | 2000
5 | b12 IE/SD/GA | 13000 | 1100
6 | b12 K338A | 13000 | 110
7 | b12 R292A | 13000 | 140
8 | b12 S239A | 13000 | 110
9 | b12 S267G | 14000 | 80
10 | b12 S298A | 14000 | 96
11 | b12 SD/IE/AL | 13000 | 2800
